Biological target: ActHIB, Haemophilus influenzae type b capsular polysaccharide (PRP) tetanus toxoid conjugate, withou (UniProt P04958 2-1315)
Test: competitive ELISA, soluble murine Fc-dectin-1a on coated glucan

B1: soluble murine Fc-dectin-1a receptor (InvivoGen) (Fc fusion)
chain: EYGHNSGRNPEEKDNFLSRNKENHKPTESSLDEKVAPSKASQTTGGFSQPCLPNWIMHGKSCYLFSFSGNSWYGSKRHCSQLGAHLLKIDNSKEFEFIESQTSSHRINAFWIGLSRNQSEGPWFWEDGSAFFPNSFQVRNTAPQESLLHNCVWIHGSEVYNQICNTSSYSICEKEL
binding result: no binding
